One block for each molecule: values may come before it.
How the values were obtained:
[1] = target: CgE1o (thiamine diphosphate-dependent 2-oxoglutarate dehydrogenase, OdhA), C-terminal His-tagged (Corynebacterium glutamicum) (UniProt Q8NRC3); assay: SEC; HiLoad 26/600 Superdex 200 pg or Superose 6 10/300 GL column, TESG10N buffer; mixtures incubated on ice for 30 min before the run; masses estimated against size standards; fractions read by SDS-PAGE (CBB) or Western blot
[2] = target: CgE2-E3 subcomplex (Corynebacterium glutamicum) (UniProt Q8NNJ2)
[3] = target: CgE1p (thiamine diphosphate-dependent pyruvate dehydrogenase, AceE), C-terminal His- and Flag-tagged (Corynebacterium glutamicum) (UniProt Q8NNF6); assay: SEC; HiLoad 26/600 Superdex 200 pg or Superose 6 10/300 GL column, TESG10N buffer; mixtures incubated on ice for 30 min before the run; masses estimated against size standards; fractions read by SDS-PAGE (CBB) or Western blot
purified protein [4] = substrate: O=C(O)CCC(=O)C(=O)O; assay: purified protein; type: biochemical, Corynebacterium glutamicum; settings: 0.2 mM CoA, 0.3 mM thiamine pyrophosphate, 3 mM L-cysteine, 5 mM MgCl2, 1 mM APAD+ (NAD+ analogue), TES-NaOH pH 7.6, 30 °C, CgE1o 20 μg with CgE2-E3 15 μg
purified protein [5] = substrate: CC(=O)C(=O)O; assay: purified protein; type: biochemical, Corynebacterium glutamicum; settings: 0.2 mM CoA, 0.3 mM thiamine pyrophosphate, 3 mM L-cysteine, 5 mM MgCl2, 1 mM APAD+ (NAD+ analogue), TES-NaOH pH 7.6, 30 °C, CgE1p 15 μg with CgE2-E3 15 μg

- stoichiometry N [1]: 6
Molecule: CgE1o (thiamine diphosphate-dependent 2-oxoglutarate dehydrogenase, OdhA), C-terminal His-tagged (from UniProt Q8NRC3 1-1221) (enzyme)

- PDH activity against the amount of CgE1p (37, 150, 300, 600 pmol) with a fixed amount of CgE2-E3 (18 pmol) [2]: 150 pmol
- stoichiometry N [3]: 2
Molecule: CgE1p (thiamine diphosphate-dependent pyruvate dehydrogenase, AceE), C-terminal His- and Flag-tagged (from UniProt Q8NNF6 1-922) (enzyme)

Second part, the molecule before the results:

B1: reconstituted ODH complex (CgE1o with CgE2‐E3) (Corynebacterium glutamicum ATCC 13032) (protein)
chain: SSASTFGQNAWLVDEMFQQFQKDPKSVDKEWRELFEAQGGPNTTPATTEAQPSAPKESAKPAPKAAPAAKAAPRVETKPADKTAPKAKESSVPQQPKLPEPGQTPIRGIFKSIAKNMDISLEIPTATSVRDMPARLMFENRAMVNDQLKRTRGGKISFTHIIGYAMVKAVMAHPDMNNSYDVIDGKPTLIVPEHINLGLAIDLPQKDGSRALVVAAIKETEKMNFSEFLAAYEDIVARSRKGKLTMDDYQGVTVSLTNPGGIGTRHSVPRLTKGQGTIIGVGSMDYPAEFQGASEDRLAELGVGKLVTITSTYDHRVIQGAVSGEFLRTMSRLLTDDSFWDEIFDAMNVPYTPMRWAQDVPNTGVDKNTRVMQLIEAYRSRGHLIADTNPLSWVQPGMPVPDHRDLDIETHNLTIWDLDRTFNVGGFGGKETMTLREVLSRLRAAYTLKVGSEYTHILDRDERTWLQDRLEAGMPKPTQAEQKYILQKLNAAEAFENFLQTKYVGQKRFSLEGAEALIPLMDSAIDTAAGQGLDEVVIGMPHRGRLNVLFNIVGKPLASIFNEFEGQMEQGQIGGSGDVKYHLGSEGQHLQMFGDGEIKVSLTANPSHLEAVNPVMEGIVRAKQDYLDKGVDGKTVVPLLLHGDAAFAGLGIVPETINLAKLRGYDVGGTIHIVVNNQIGFTTTPDSSRSMHYATDYAKAFGCPVFHVNGDDPEAVVWVGQLATEYRRRFGKDVFIDLVCYRLRGHNEADDPSMTQPKMYELITGRETVRAQYTEDLLGRGDLSNEDAEAVVRDFHDQMESVFNEVKEGGKKQAEAQTGITGSQKLPHGLETNISREELLELGQAFANTPEGFNYHPRVAPVAKKRVSSVTEGGIDWAWGELLAFGSLANSGRLVRLAGEDSRRGTFTQRHAVAIDPATAEEFNPLHELAQSKGNNGKFLVYNSALTEYAGMGFEYGYSVGNEDSIVAWEAQFGDFANGAQTIIDEYVSSGEAKWGQTSKLILLLPHGYEGQGPDHSSARIERFLQLCAEGSMTVAQPSTPANHFHLLRRHALSDLKRPLVIFTPKSMLRNKAAASAPEDFTEVTKFQSVINDPNVADAAKVKKVMLVSGKLYYELAKRKEKDGRDDIAIVRIEMLHPIPFNRISEALAGYPNAEEVLFVQDEPANQGPWPFYQEHLPELIPNMPKMRRVSRRAQSSTATGVAKVHQLEEKQLIDEAFEA
notes: CgE1o C-terminal His tag, pAA62, 134,664 Da, mainly hexamer alone; CgE2 (70,905 Da, lipoylated) co-expressed with N-terminal His/Flag CgE3 (50,652 Da), pKH13; E. coli BL21-CodonPlus (DE3); tags not cut; gel-filtration purified; complex about 940 kDa; with Dihydrolipoamide acetyltransferase component of pyruvate dehydrogenase complex (E2); Dihydrolipoyl dehydrogenase (E3)
- Km (purified protein [4]): 10 ± 1 µM

B2: reconstituted PDH complex (CgE1p with CgE2‐E3) (Corynebacterium glutamicum ATCC 13032) (protein)
chain: MADQAKLGGKPSDDSNFAMIRDGVASYLNDSDPEETNEWMDSLDGLLQESSPERARYLMLRLLERASAKRVSLPPMTSTDYVNTIPTSMEPEFPGDEEMEKRYRRWIRWNAAIMVHRAQRPGIGVGGHISTYAGAAPLYEVGFNHFFRGKDHPGGGDQIFFQGHASPGMYARAFMEGRLSEDDLDGFRQEVSREQGGIPSYPHPHGMKDFWEFPTVSMGLGPMDAIYQARFNRYLENRGIKDTSDQHVWAFLGDGEMDEPESRGLIQQAALNNLDNLTFVVNCNLQRLDGPVRGNTKIIQELESFFRGAGWSVIKVVWGREWDELLEKDQDGALVEIMNNTSDGDYQTFKANDGAYVREHFFGRDPRTAKLVENMTDEEIWKLPRGGHDYRKVYAAYKRALETKDRPTVILAHTIKGYGLGHNFEGRNATHQMKKLTLDDLKLFRDKQGIPITDEQLEKDPYLPPYYHPGEDAPEIKYMKERRAALGGYLPERRENYDPIQVPPLDKLRSVRKGSGKQQIATTMATVRTFKELMRDKGLADRLVPIIPDEARTFGLDSWFPTLKIYNPHGQNYVPVDHDLMLSYREAPEGQILHEGINEAGSVASFIAAGTSYATHGKAMIPLYIFYSMFGFQRTGDSIWAAADQMARGFLLGATAGRTTLTGEGLQHMDGHSPVLASTNEGVETYDPSFAYEIAHLVHRGIDRMYGPGKGEDVIYYITIYNEPTPQPAEPEGLDVEGLHKGIYLYSRGEGTGHEANILASGVGMQWALKAASILEADYGVRANIYSATSWVNLARDGAARNKAQLRNPGADAGEAFVTTQLKQTSGPYVAVSDFSTDLPNQIREWVPGDYTVLGADGFGFSDTRPAARRFFNIDAESIVVAVLNSLAREGKIDVSVAAQAAEKFKLDDPTSVSVDPNAPEE
notes: CgE1p C-terminal His (and Flag) tag, pKH4, 102,826 Da, dimer in solution; CgE2 (70,905 Da, lipoylated) co-expressed with N-terminal His/Flag CgE3 (50,652 Da), pKH13; E. coli BL21-CodonPlus (DE3); tags not cut; gel-filtration purified; with Dihydrolipoamide acetyltransferase component of pyruvate dehydrogenase complex (E2); Dihydrolipoyl dehydrogenase (E3)
- Km (purified protein [5]): 3500 ± 200 µM

From paper PMC7568260, “In vitro reconstitution and characterization of pyruvate dehydrogenase and 2‐oxoglutarate dehydrogenase hybrid complex from Corynebacterium glutamicum” (MicrobiologyOpen, 2020)
